B1: recombinant human caspase 3 (protein)
chain: SGISLDNSYKMDYPEMGLCIIINNKNFHKSTGMTSRSGTDVDAANLRETFRNLKYEVRNKNDLTREEIVELMRDVSKEDHSKRSSFVCVLLSHGEEGIIFGTNGPVDLKKITNFFRGDRCRSLTGKPKLFIIQACRGTELDCGIETDSGVDDDMACHKIPVEADFLYAYSTAPGYYSWRNSKDGSWFIQSLCAMLKQYADKLEFMHILTRVNRKVATEFESFSFDATFHAKKQIPCIVSMLTKELYFYH
B2: recombinant human caspase 7 (protein)
chain: AKPDRSSFVPSLFSKKKKNVTMRSIKTTRDRVPTYQYNMNFEKLGKCIIINNKNFDKVTGMGVRNGTDKDAEALFKCFRSLGFDVIVYNDCSCAKMQDLLKKASEEDHTNAACFACILLSHGEENVIYGKDGVTPIKDLTAHFRGDRCKTLLEKPKLFFIQACRGTELDDGIQADSGPINDTDANPRYKIPVEADFLFAYSTVPGYYSWRSPGRGSWFVQALCSILEEHGKDLEIMQILTRVNDRVARHFESQSDDPHFHEKKQIPCVVSMLTKELYFSQ

Target: hXkr8-GFP (wild-type human Xkr8 fused to GFP at its C-terminus)

| Protein | cleavage of the GFP-fusion protein, Western blot with anti-GFP |
| --- | --- |
| B1 | caspase 3 and caspase 7 cleaved the wild-type but not 2DA mutant hXkr8 |
| B2 | caspase 3 and caspase 7 cleaved the wild-type but not 2DA mutant hXkr8 |
